Test results from PMC10099707.

Target: HDAC4 (mouse (endogenous in hippocampal tissue)) (UniProt Q6NZM9)
Assay: co-IP

Chain of UniProt Q6NZM9 (Q6NZM9 whole entry): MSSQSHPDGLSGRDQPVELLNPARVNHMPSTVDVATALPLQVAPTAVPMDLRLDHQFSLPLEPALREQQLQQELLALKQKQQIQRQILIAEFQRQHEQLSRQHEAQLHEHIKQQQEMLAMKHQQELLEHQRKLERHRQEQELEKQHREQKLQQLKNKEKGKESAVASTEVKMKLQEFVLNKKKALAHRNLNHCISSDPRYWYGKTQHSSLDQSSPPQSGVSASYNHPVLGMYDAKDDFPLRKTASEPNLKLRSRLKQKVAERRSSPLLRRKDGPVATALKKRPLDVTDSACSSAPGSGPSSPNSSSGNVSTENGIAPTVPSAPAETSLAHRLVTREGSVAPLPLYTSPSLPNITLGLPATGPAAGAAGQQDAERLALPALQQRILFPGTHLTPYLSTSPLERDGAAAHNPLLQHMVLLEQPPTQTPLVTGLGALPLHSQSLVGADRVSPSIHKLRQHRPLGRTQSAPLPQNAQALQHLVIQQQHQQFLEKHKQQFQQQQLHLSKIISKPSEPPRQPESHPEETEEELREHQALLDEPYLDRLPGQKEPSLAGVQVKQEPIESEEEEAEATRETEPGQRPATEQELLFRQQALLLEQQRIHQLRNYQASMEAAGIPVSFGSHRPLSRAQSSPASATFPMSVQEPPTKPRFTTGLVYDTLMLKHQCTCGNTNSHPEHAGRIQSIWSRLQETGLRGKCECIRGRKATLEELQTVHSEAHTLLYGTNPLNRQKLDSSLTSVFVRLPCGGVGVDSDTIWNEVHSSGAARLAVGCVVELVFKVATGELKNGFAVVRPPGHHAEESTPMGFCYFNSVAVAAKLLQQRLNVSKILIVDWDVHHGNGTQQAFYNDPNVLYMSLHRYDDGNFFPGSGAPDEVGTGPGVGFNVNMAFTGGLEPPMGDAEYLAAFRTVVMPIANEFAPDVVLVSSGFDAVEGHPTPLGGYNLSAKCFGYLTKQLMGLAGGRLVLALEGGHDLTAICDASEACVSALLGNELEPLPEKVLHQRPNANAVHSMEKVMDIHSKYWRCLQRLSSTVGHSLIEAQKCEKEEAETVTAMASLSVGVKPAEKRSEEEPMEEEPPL

Ca2+/calmodulin‐dependent protein kinase II (CaMKII) (from UniProt P11798 1-478) (enzyme)
fold change AD vs WT of the co-IP band ratio CaMKII/HDAC4 (fold (AD vs WT)): 0.61
